The values that follow come from the DeepSol protein solubility set.

The data set can be described thus: soluble on expression in E. coli; label from the status in PepcDB or PDB records.
“MGNCNARPATFKPKNLPMEYPKKYAMYPTRRRMRASERRTYKRDCKNLLESVAGENPFEGDEETANNYTEAIFSISIKAKVLKTYMDLIESSINEECPVNGHIQLFCNEINNLSHLYEVFFRKSIVSVDTRVEERKEIARAAYRDIKNLTIIIYLNKERSKTLLQSVMMHTEFQTHQAEKLVEHYEATFSPILKEVLPDPNAPRIHRTPTRAQIIAFWEEVRREKESGTLGTPF”: the “soluble on expression in E. coli” value is “not soluble”.
Next, “MREFSRPKVVISRCLEFDHCRYNGDMISSPVVVKLKKHVDFLPVCPEVEIGLGVPRNPVRIVLDKGDHRLVQPSSGKDVTEDMKSFCSNFLDSIYEVDGFILKFRSPSCGLKDVKVYPSAGSHGGAVEKISGYFGGAVLGRYPFHPVEDEGRLRNARIKEHFLTKLFTFAAFRKVKSEGSIKDLINFHAQNKFLLMAYNQAELQKLGEIAANREKRPWKELISDYENHLYSALSRAPRYTSTINVLMHALGFFSDQLSSREKALFFDWVQKYREGRASVCPAINMIRSWIVRFEDGYLMSQTFFEPYPEDLIEINPVESHLREDLWK”: “not soluble”.
Next, “MSHQSPPIAEVDATDDMHEALFAKRGCCFLMPCLASSQPSTRGGSVWWQRITTVDKLEPDERWWIRGWRRMREWSELVAGPRWKTYIRRFGRSNCCGGGGGRVGNSSGGCGGGAMPNRSSDQGKFRYDQLSYSLNFDDGNQTGHFDDEFPYRDYSMRFAAPSLPVSTKCSIDFDSDIDNK”: “soluble”; “MAHHHHHHMERRSEWVASLRSTLPQFSKRSAAPLERGNAAAILGPAPRRTLDKALSSHNTTSSLLLPSEWCEQATQRLITTLHGIVPPLQVQQTDYFLCSLIHPSYVQASTMRCESEALRRRVQQELRRTVCMPLELTMTGSKSLRLLRELTHYVEQGAAAAATSARARATLPAAPVAGRSEARDPSYGPSSWSSYPLDASWPELHSADSTAFVQAFQRAGLDSLVLYDKSFFAASSTLTDNISGAGSAEVSLAAFTALCGSIELVSGWCSLLQFVDRVASEQRGLERNTDGHE”: “not soluble”.
For “SAGINYVQNYNGNLGDFTYDESAGTFSMYWEDGVSSDFVVGLGWTTGSSNAITYSAEYSASGSASYLAVYGWVNYPQAEYYIVEDYGDYNPCSSATSLGTVYSDGSTYQVCTDTRTNEPSITGTSTFTQYFSVRESTRTSGTVTVANHFNFWAHHGFGNSDFNYQVVAVEAWSGAGSASVTISS”, the “soluble on expression in E. coli” value was “soluble”.
The result for “LDRAYLRVENQRYRDKLEAANRELQASLNLLQEDQNAGRQVQMNMLPVTPWSIEGLEFSHRIIPSLYLSGDFVDYFRVDERRVAFYLADVSGHGASSAFVTVLLKFMTTRLLYESRRNGTLPEFKPSEVLAHINRGLINTKLGKHVTMLGGVIDLEKNSLTYSIGGHLPLPVLFVEGQAGYLEGRGLPVGLFDDATYDDRVMELPPSFSLSLFSDGILDVLPGATLKEKEASLPEQVAAAGGTLDGLRQVFGLANLAEMPDDIALLVLSRNLA” reads “not soluble”; that for “MVEVVRNKRPPRGLVPRLRRALAALMEELGVGDKGVTVILTGDRRLRALKREWWGEAGKAYRKSVGPFGPGLPRPRAKCQPLIISTWRPHF”, “soluble”.
With “MLAQLTISNFAIVRELEIDFHSGMTVITGETGAGKSIAIDALGLCLGGRAEADMVRTGAARADLCARFSLKDTPAALRWLEENQLEDGHECLLRRVISSDGRSRGFINGTAVPLSQLRELGQLLIQIHGQHAHQLLTKPEHQKFLLDGYANETSLLQEMTARYQLWHQSCRDLAHHQQLSQERAARAELLQYQLKELNEFNPQPGEFEQIDEEYKRLANSGQLLTTSQNALALMADGEDANLQSQLYTAKQLVSELIGMDSKLSGVLDMLEEATIQIVEASDELRHYCDRLDLDPNRLFELEQRISKQISLARKHHVSPETLPQYYQSLLEEQQQLDDQADSQETLALAVTKHHQQALETARALHQQRQHYAEELAQLITDSMHALSMPHGQFTIDVKFDEHHLGADGADRIEFRVTTNPGQPMQPIAKVASGGELSRIALAIQVITARKMETPALIFDEVDVGISGPTAAVVGKLLRQLGESTQVMCVTHLPQVAGCGHQHYFVSKETDGAMTETHMQSLNKKTRLQELARLLGGSEVTRNTLANAKELLAA”, the “soluble on expression in E. coli” value was “not soluble”.
Next, “MTTHHIKKSYSPNTKLSDLICENYDLLLVITRFGISLGFGEKSIREVCEDNKVNTNTLMAVINALINRPEHPSETVLSDLSAPSLINYLRKSHNYFLEFRLPLLRQDLLAALSNCPSEVVFVIRQFYDEYVEEVRKHMSYEEKTVFPYVEKLLGGKLDKRSHYRIDIFSKRHDQIELKISELKNLLIKYYPTSSGYELNSVLHDIFSSEDDLSAHNFVEDHLFVPLIRKIEKENGL”: “not soluble”.
The result for “MPVFHTRTIESILEPVAQQISHLVIMHEEGEVDGKAIPDLTAPVAAVQAAVSNLVRVGKETVQTTEDQILKRDMPPAFIKVENACTKLVQAAQMLQSDPYSVPARDYLIDGSRGILSGTSDLLLTFDEAEVRKIIRVCKGILEYLTVAEVVETMEDLVTYTKNLGPGMTKMAKMIDERQQELTHQEHRVMLVNSMNTVKELLPVLISAMKIFVTTKNSKNQGIEEALKNRNFTVEKMSAEINEIIRVLQLTSWDEDAWASKDTEAMKRALASIDSKLNQAKGWLRDPSASPGDAGEQAIRQILDEAGKVGELCAGKERREILGTCKMLGQMTDQVADLRARGQGSSPVAMQKAQQVSQGLDVLTAKVENAARKLEAMTNSKQSIAKKIDAAQNWLADPNGGPEGEEQIRGALAEARKIAELCDDPKERDDILRSLGEISALTSKLADLRRQGKGDSPEARALAKQVATALQNLQTKTNRAVANSRPAKAAVHLEGKIEQAQRWIDNPTVDDRGVGQAAIRGLVAEGHRLANVMMGPYRQDLLAKCDRVDQLTAQLADLAARGEGESPQARALASQLQDSLKDLKARMQEAMTQEVSDVFSDTTTPIKLLAVAATAPPDAPNREEVFDERAANFENHSGKLGATAEKAAAVGTANKSTVEGIQASVKTARELTPQVVSAARILLRNPGNQAAYEHFETMKNQWIDNVEKMTGLVDEAIDTKSLLDASEEAIKKDLDKCKVAMANIQPQMLVAGATSIARRANRILLVAKREVENSEDPKFREAVKAASDELSKTISPMVMDAKAVAGNISDPGLQKSFLDSGYRILGAVAKVREAFQPQEPDFPPPPPDLEQLRLTDELAPPKPPLPEGEVPPPRPPPPEEKDEEFPEQKAGEVINQPMMMAARQLHDEARKWSSKGNDIIAAAKRMALLMAEMSRLVRGGSGTKRALIQCAKDIAKASDEVTRLAKEVAKQCTDKRIRTNLLQVCERIPTISTQLKILSTVKATMLGRTNISDEESEQATEMLVHNAQNLMQSVKETVREAEAASIKIRTDAGFTLRWVRKTPWYQ” reads “soluble”.
Next, “MGSDKIHHHHHHMTTVNETTSQAGLALAQAGSNSAAQGIQDQFLTLLVTQLRNQDPLNPMENAELTSQLAQISTVEGINNLKNTMLAISGQIDVSQSMDAVSMIGKGVLMPGDKVSLGADPNDPAQRGATPFGIDLQGDATKVTVKVLDPSGAVVRTMELGDLKTGVHTLQWDGNNDGGQPLADGKYSITVSASDADANPVKTEALTYGQVKSVAYSTNGLRLDLGLAGQISMLDVRKVIGASGSA”: “not soluble”; “MGSDKIHHHHHHMIIDLSQLPEPEVIENLDFETIYQELLGDFREAMAGEWTAEVESDPVLKLLQLAAYRELLLRARINDAARAVMLAYASGADLDQIGAGFNVQRLLIRPAQPEAVPPVEAQYESDKSLRNRIQLAFEQLSVAGPRNAYIAHALGADGRVADASATSPAPCEVLISVLGVEGNGQAPEAVLQAVRLALNAEDVRPVADRVTVRSAGIVPYQVKAQLYLFPGPEAELIRAAAEASLRDYISAQRRLGRDIRRSALFATLHVEGVQRVELQEPAADVVLDETQAAYCTGYAITLGGVDE”: “not soluble”; “MGSDKIHHHHHHMKDIANTPLVSIICSTYNHGLYISQCLDGFLMQKTNFPFEILIHDDASTDNTPDIIREYEHNHPQVIRPIYQKENKYSKKEDIFAKYQCSRVRGKYIAICEGDDYWIDPLKLQKQIDFLENNPDYGMIYTTSKVYNQKKGKIEEDIIGRKFNGYIELLSGNCIPTLTSCIRSALVMEYLKEVEPKSKNWLMGDYPMWLWISYYHKIKFLPESTTVYRVLEESASHSNDIQKYERFILSTIDITAFYIHKFNTPLTEPYLRSLSCFYYDLYDKYMCLGMYKKARHYSKLINPSYVSARMRRRVRRFHLRFIQIRLAKWFDIKGKERK”: “not soluble”.
On to “SEEDIDTRKINNSFLRDHSYATEADIISTVEFNHTGELLATGDKGGRVVIFQREQESKNQVHRRGEYNVYSTFQSHEPEFDYLKSLEIEEKINKIRWLPQQNAAYFLLSTNDKTVKLWKVSERDKRPEGYNLKDEEGRLRDPATITTLRVPVLRPMDLMVEATPRRVFANAHTYHINSISVNSDYETYMSADDLRINLWNFEITNQSFNIVDIKPANMEELTEVITAAEFHPHHCNTFVYSSSKGTIRLCDMRASALCDRHTKFFEEPEDPSNRSFFSEIISSISDVKFSHSGRYIMTRDYLTVKVWDLNMENRPIETYQVHDYLRSKLCSLYENDCIFDKFECVWNGSDSVIMTGSYNNFFRMFDRNTKRDVTLEASRENSKPRAILKPRKVCVGGKRRKDEISVDSLDFSKKILHTAWHPSENIIAVAATNNLYIFQDKVN”, for which the “soluble on expression in E. coli” value is “not soluble”.
The result for “MGHHHHHHSHMLSVHTDMASVTKAMAAPESGLEVRDRMWLKITIPNAFLGSDVVDWLYHHVEGFPERREARKYASGLLKAGLIRHTVNKITFSEQCYYVFGDLSGGCESYLVNLSLNDNDGSSGASDQDTLAPLPGATPWPLLPTF” reads “soluble”; that for “GSKAPPTFKVSLMDQSVREGQDVIMSIRVQGEPKPVVSWLRNRQPVRPDQRRFAEEAEGGLCRLRILAAERGDAGFYTCKAVNEYGARQCEARLEVRGE”, “soluble”; that for “MAHHHHHHMQMNSYAGGYTTHNRSYAAMVPPPMPMPPGWEMAYTPNGEIYYIDHNTRTTHWQLPAEYTMQQPVCSYRGPQRQRRGIDRSKAKTKMCMNIENGGTCSYGANCAFAHSSEELSTHPHFNSAPDAGYSAK”, “not soluble”.
The result for “GPGSMLATFFGRRAEPEFKVVCDPESIVFPVDFDAPDYPYEQAFEEADAYVRKLPTRGVVPVSDVLRLQFYSLFKQATEGDINEDVKQPSMLRDWEGYWKVYGWRKCRGMTRERARDLYTDLLDLQIRKHCSFVWGAPSGEDRWAAFYDGVRIIRNLPKGGYYLPDSLRAHFYALYKQALVGNLSDFQKTPAAFSEKYKWLRSRPSKAGFDQMRYDEWAALKGMSCEKAKRMYCKDIFKSAAMCGYVWAPPGTADHLKVIGDQTSAKTLKKRTDADEHAERIAGATHLTMEEAMDAVGVHLSMVERLTMHSFTKKEQTAAARTAEEAAGRKKREEKAEVKRRGVAGSHVDLNKGMAFARPKAEESTEATVTEKTEETEAKEDAERRLEAQGTDKDPQSVCNLCGSFAKDIASDAEAPEKVKESGAAAAAAKDCTAASTSPAPVPKLQASAKVAEASKILPSKSEPVLKKEPAVKGTSKGAKSSHQAKNGAKKGPAGKRTKAN” reads “soluble”.
